The values below come from patent publication US12324826B2, “Compositions and methods to mitigate or prevent an immune response to an immunogenic therapeutic molecule in non-human primates” (Jomoco, Corp, priority 2015, dated 2025).

In series [1] the test system is ADA against the potentially immunogenic therapeutic agent. The experiment in a line: NHP preclinical pharmacokinetic study: ADA development with immunosuppressant plus immunogenic therapeutic agent. Format: in vivo.
Description: Administration of a basiliximab loading dose on Day 0 of the NHP preclinical pharmacokinetic study is followed on Day 1 by administration of a basiliximab maintenance dose and the potentially immunogenic therapeutic agent. Basiliximab is dosed approximately every 10 days to maintain a serum concentration at which CD25 is almost completely bound by basiliximab (about 200 ug/mL). The therapeutic agent is dosed at the proscribed interval and dose.
Administration of a nanocarrier encapsulated rapamycin (NER) loading dose on Day −2, −1, or 0 of the NHP preclinical pharmacokinetic study is followed on Day 0 by administration the potentially immunogenic therapeutic agent. NER and the therapeutic agent are then co-administered at the proscribed dose and intervals of every 1-4 weeks for as many as 12 weeks, following which the immunogenic therapeutic agent may be administered without NER.
Basiliximab is dosed approximately every 10 days to maintain a serum concentration at which CD25 is almost completely bound by basiliximab (about 200 ug/mL). Rapamycin is dosed daily or every other day during the course of basiliximab administration to maintain a rapamycin trough level within the range of 4-12 ng/mL. Following this treatment regimen, the immunogenic therapeutic agent may be administered without the immunosuppressant combination.
Series [2] shares this test system.
Description: Administration of a basiliximab loading dose on Day 0 of the NHP toxicology study is followed on Day 1 by administration of a basiliximab maintenance dose and the potentially immunogenic therapeutic agent. Basiliximab is dosed approximately every 10 days to maintain a serum concentration at which CD25 is almost completely bound by basiliximab (about 200 ug/mL). The therapeutic agent is dosed at the proscribed interval and dose.
Administration of a nanocarrier encapsulated rapamycin (NER) loading dose on Day −2, −1, or 0 of the NHP toxicology study is followed on Day 0 by administration the potentially immunogenic therapeutic agent. NER and the therapeutic agent are then co-administered at the proscribed dose and intervals of every 1-4 weeks for as many as 12 weeks, following which the immunogenic therapeutic agent may be administered without NER.
Basiliximab is dosed approximately every 10 days to maintain a serum concentration at which CD25 is almost completely bound by basiliximab (about 200 ug/mL). Rapamycin is dosed daily or every other day during the course of basiliximab administration to maintain a rapamycin trough level within the range of 4-12 ng/mL. Following this treatment regimen, the immunogenic therapeutic agent may be administered without the immunosuppressants.

As for basiliximab, the “development of ADA in the immunosuppressant treated group” value in series [1] (NHP given immunosuppressant and potentially immunogenic therapeutic agent, compared with control group given therapeutic agent alone) is reported as “no ADA develops or the level of ADA is sufficiently low”. For the same substance, the “pharmacokinetic parameters of the therapeutic agent in the immunosuppressant treated group” value in series [1] (NHP given immunosuppressant and therapeutic agent, altered in the control group due to ADA) is recorded as “unaltered”. Also, in series [2] (NHP toxicology study, immunosuppressant plus therapeutic agent, compared with therapeutic agent alone), the “development of ADA” value is “prevents the development of ADA”. The “immune mediated drug induced liver injury (DILI) in the group given immunosuppressant and therapeutic agent” value in series [2] (in vivo) was “develop immune mediated drug induced liver injury (DILI)”.
